# Measurements from patent US20210198328A1, “MODULATED CAS-INHIBITORS” (Universität Heidelberg, priority 2017, published 2021).
# Test system: dCas9-3xRFP
# Test: Telomere labeling, automated image analysis
# Format: cell-based, Streptococcus pyogenes
# Conditions: U2OS, light or dark 20 h
# Experimental: U2OS cells were seeded into 4-compartment CELLview cell culture dishes (Greiner Bio-One) at a density of 30,000 cells per compartment. The next day, cells were transfected with vectors encoding (i) a CMV promoter-driven dCas9-3xRFP-P2A-CASANOVA and a U6 promoter-driven telomere-targeting gRNA, (ii) a telomere-targeting gRNA and GFP transfection marker, and (iii) a CMV promoter-driven CASANOVA in a ratio of 20:6:3 using 362.5 ng total DNA and 1.5 μl JetPrime for transfection (per compartment).
# In the positive control samples, vector i was replaced by a vector encoding dCas9-3xRFP (without the P2A-CASANOVA) and a U6 promoter-driven telomere-targeting RNA, and vector iii was replaced by an irrelevant DNA. […] SlowFade™ Diamond Antifade Mountant with DAPI (Invitrogen) was added and imaging was performed using the aforementioned microscopy setup and the following excitation/detection settings: 405 nm (1% laser powerV410-490 nm for DAPI, 488 nm (2% laser power)/493-578 nm for GFP, or 552 nm (1% laser power)/578-789 nm for RFP. RFP fluorescent spots (i.e., labeled telomeres) were then detected and quantified using a fully automated image analysis pipeline as follows. The ImageJ2 (beta) Integration in KNIME Version 3.5.2 (KNIME AG) was used to create an automated image processing and analysis pipeline employed for quantification of labeled telomeres. […]
molecule,measurement,value
"AcrIIA4: anti-CRISPR polypeptide of a Listeria monocytogenes prophage, SEQ ID NO: 1 (protein, Listeria monocytogenes) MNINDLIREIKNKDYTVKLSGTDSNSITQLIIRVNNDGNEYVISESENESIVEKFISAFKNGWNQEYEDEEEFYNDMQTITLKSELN","telomere labeling, light-independent",weak
